Reference: patent publication US8674063 (CENTRO DE INGENIERIA GENETICA Y BIOTECNOLOGIA, dated 2014)

Target: NS3pro protease of dengue virus 2 (strain S16803) (dengue virus 2 (strain S16803))
Experiment: cell-based or functional assay

B1: peptide NS2Bden2+TAT (peptide 1 of table 1) (peptide)
peptide: YGRKKRRQRRRPPQGGGSSPILSITISEDG
IC50 of inhibition of DV2 infection, plaque reduction neutralization assay in Vero cells: 50 to 60 µM
